The values below are quoted from earlier work in article PMC6472649.

Like-named read-outs stand apart in the source and are kept apart here.

In general, Kd refers to the constant that tells how readily two partners part at equilibrium.

In data set [1] the target is SFLLRN ligand (Homo sapiens). The data set is described as follows: FD-AFM.
Data set [2] concerns the target SFLLRN ligand (Homo sapiens). The data set is described as follows: FD-AFM. This is another data set of the same source.

For PAR1 (from UniProt P25116), the results for the Kd in data set [1] and in data set [2] were 40 µM and 0.35 µM, respectively.
